Positions count from the first letter of the chain named.
B1: His6-VASP-AAA (natural protein)
chain: MSETVICSSRATVMLYDDGNKRWLPAGTGPQAFSRVQIYHNPTANSFRVVGRKMQPDQQVVINCAIVRGVKYNQATPNFHQWRDARQVWGLNFGSKEDAAQFAAGMASALEALEGGGPPPPPALPTWSVPNGPSPEEVEQQKRQQPGPSEHIERRVANAGGPPAPPAGGPPPPPGPPPPPGPPPPPGLPPSGVPAAAHGAGGGPPPAPPLPAAQGPGGGGAGAPGLAAAIAGAKLRKVAKQEEASGGPTAPKAESGRSGGGGLMEEMNAMLARRRKAAQVGEKTPKDESANQEEPEARVPAQSESVRRPWEKNSTTLPRMKSSSSVTTSETQPCTPSSSDYSDLQRVKQELLEEVKKELQKVKEEIIEAFVQELRKRGSP
B2: His6-VASP-ADA, purified recombinant (natural protein)
chain: B1 chain with A239D
B3: His6-VASP-AAE, purified recombinant (natural protein)
chain: B1 chain with A278E
B4: VASP peptide F8 (peptide)
peptide: PPPPGPPPPPGPPPP
B5: VASP peptide F8 with P183 changed to alanine (peptide)
peptide: PPPPGPPPPPGPAPP
B6: VASP peptide F8 with P172 changed to alanine (peptide)
peptide: PAPPGPPPPPGPPPP
B7: VASP peptide F8 with G175 changed to alanine (peptide)
peptide: PPPPAPPPPPGPPPP
B8: VASP peptide F8 with G181 changed to alanine (peptide)
peptide: PPPPGPPPPPAPPPP
B9: VASP peptide F8 with P184 changed to alanine (peptide)
peptide: PPPPGPPPPPGPPAP
B10: VASP peptide F8 with P173 changed to alanine (peptide)
peptide: PPAPGPPPPPGPPPP
B11: VASP peptide F8 with P182 changed to alanine (peptide)
peptide: PPPPGPPPPPGAPPP
B12: VASP peptide F8 with P171 changed to alanine (peptide)
peptide: APPPGPPPPPGPPPP
B13: VASP peptide F8 with P174 changed to alanine (peptide)
peptide: PPPAGPPPPPGPPPP
B14: VASP peptide F2 (peptide)
peptide: PPAGGPPPPPGPPPP
B15: VASP peptide F8 with P185 changed to alanine (peptide)
peptide: PPPPGPPPPPGPPPA

What follows are binders tested against T1, GST-SPCN_SH3 (UniProt Q13813 970-1025) (assay: pull-down).

Does B1 bind?
Result: binds

Does B2 bind?
Result: binds

Does B3 bind?
Result: binds

Each binder was assayed against T1, GST-SPCN_SH3 (assay: peptide or protein array).

Does B4 bind?
Result: binds

Does B5 bind?
Result: binds

Does B6 bind?
Result: binds

Does B7 bind?
Result: binds

Does B8 bind?
Result: binds

Does B9 bind?
Result: binds

Does B10 bind?
Result: binds

Does B11 bind?
Result: binds

Does B12 bind?
Result: binds

Does B13 bind?
Result: binds

Does B14 bind?
Result: binds

Does B15 bind?
Result: binds

— PMC2213610 (The Journal of Cell Biology, 2008)
